Source: patent publication US20050181476A1 (VLAAMS INTERUNIVERSITAIR INSTITUUT VOOR BIOTECHNOLOGIE VZW, published 2005)

Target: T1, IRAK-4 (UniProt Q9NWZ3 1-460)
T1 construct: also called Gal4AD-IRAK4 (in yeast); not shown: N-terminal Flag or VSV tag (pCRIII) in HEK293T co-immunoprecipitation
T1 sequence (looked up): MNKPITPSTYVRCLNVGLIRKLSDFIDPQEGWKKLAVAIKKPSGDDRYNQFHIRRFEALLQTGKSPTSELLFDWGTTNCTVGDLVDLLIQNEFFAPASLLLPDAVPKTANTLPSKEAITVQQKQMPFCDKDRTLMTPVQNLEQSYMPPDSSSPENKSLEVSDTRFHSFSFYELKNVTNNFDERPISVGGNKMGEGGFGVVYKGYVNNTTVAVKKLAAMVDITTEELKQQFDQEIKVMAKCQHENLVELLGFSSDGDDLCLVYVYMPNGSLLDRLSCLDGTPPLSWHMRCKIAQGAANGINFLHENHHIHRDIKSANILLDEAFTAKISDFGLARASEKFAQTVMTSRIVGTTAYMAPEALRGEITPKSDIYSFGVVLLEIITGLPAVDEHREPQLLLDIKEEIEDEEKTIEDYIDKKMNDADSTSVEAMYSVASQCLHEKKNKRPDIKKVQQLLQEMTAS
Experiment: co-immunoprecipitation from transfected HEK293T cells
Description: To test this, IRAK-1KD and IRAK-4 interactions were analyzed in the presence or absence of MyD88 and/or MyD88S. […] However, addition of MyD88 but not MyD88S permitted assembly of a complex containing both IRAKs. MyD88 thereby appears to act like a hinge inducing the proximity of IRAK-1 and IRAK-4.
2×10⁶ HEK293T cells were plated on 10-cm petri dishes and transiently transfected with 1 μg of the indicated expression plasmids. The total amount of DNA was kept at 5 μg per petri dish by adding empty vector. Twenty-four hours post-transfection, cells were washed with PBS, and lysed in 500 μl lysis buffer (50 mM HEPES pH7.6, 250 mM NaCl, 0.1% NP-40, 5 mM EDTA, supplemented with protease and phosphatase inhibitors). Lysates were incubated for 16 hours with 5 μg anti-Flag (Sigma). Immunocomplexes were immobilized on protein A-Trisacryl beads (Pierce Chemical Co., Rockford, USA). The beads were washed twice with lysis buffer and twice with lysis buffer containing 1 M NaCl. Bound proteins were eluted by boiling in Laemli buffer and analyzed by 10% SDS-PAGE and Western blotting. Western blots were blocked with 5% milk and incubated overnight with primary antibodies. Antibodies raised against the C-terminal part of MyD88 were purchased from Immucor (Roedermark, Germany). […]

binding result: no binding
B1: E-MyD88S (other)
chain: MSAGDPRVGSGSLDSFMFSIPLVALNVGVRRRLSLFLNPRTPVAADWTLLPEEMGFEYLEIRELETRPDPTRSLLDAWQGRSGASVGRLLELLALLDREDILKELKSRIGQTPELFDAFICYCPNDIEFVQEMIRQLEQTDYRLKLCVSDRDVLPGTCVWSIASELIEKRCRRMVVVVSDDYLQSKECDFQTKFALSLSPGVQQKRLIPIKYKAMKKDFPSILRFITICDYTNPCTKSWFWTRLAKALSLP
notes: Expressed in HEK293T cells; also called pCAGGS-E-MyD88S; splice variant of MyD88 lacking the intermediate domain (ID); not shown: N-terminal E-tag
